Numbered stars: 1 amine (or outer) side, 2 acyl side, 3 side chain; on linkers, the order of the positions; unused ones are H or OH. Bridge positions count the residues as written; N and C are the ends. Square brackets hold non-standard residues; d marks the D form. Ends that are not written are not given here. KCOpipzaa = N6-(4-(carboxymethyl)piperazine-1-carbonyl)-L-lysine, O=C(NCCCC[C@H](N[*:1])C(=O)[*:2])N1CCN(CC(=O)[*:3])CC1; Bph3C = (S)-2-amino-3-(3'-chloro-[1,1'-biphenyl]-4-yl)propanoic acid, O=C([C@H](Cc1ccc(-c2cccc(Cl)c2)cc1)N[*:1])[*:2]; Bph3F = (S)-2-amino-3-(3'-fluoro-[1,1'-biphenyl]-4-yl)propanoic acid, O=C([C@H](Cc1ccc(-c2cccc(F)c2)cc1)N[*:1])[*:2]; pBph2F = (S)-2-amino-3-(2-fluoro-[1,1'-biphenyl]-4-yl)propanoic acid, O=C([C@H](Cc1ccc(-c2ccccc2)c(F)c1)N[*:1])[*:2]; pBph3F = (S)-2-amino-3-(3-fluoro-[1,1'-biphenyl]-4-yl)propanoic acid, O=C([C@H](Cc1ccc(-c2ccccc2)cc1F)N[*:1])[*:2]; Phe(4-(4-F-Ph)) = N[C@@H](Cc1ccc(-c2ccc(F)cc2)cc1)C(=O)O; 3Pal(6-Ph) = N[C@@H](Cc1ccc(-c2ccccc2)nc1)C(=O)O; Phe(4-COOH) = N[C@@H](Cc1ccc(C(=O)O)cc1)C(=O)O; Bip = N[C@@H](Cc1ccc(-c2ccccc2)cc1)C(=O)O; Ala(4-THP) = N[C@@H](CC1CCOCC1)C(=O)O; Hyp = O=C(O)[C@@H]1C[C@@H](O)CN1; 4Pal = N[C@@H](Cc1ccncc1)C(=O)O; Cba = N[C@@H](CC1CCC1)C(=O)O; Chg = N[C@H](C(=O)O)C1CCCCC1
Key:
BMP4 = molecular target: T1, BMP4 (Homo sapiens, UniProt P12644); test: BMP4 signal transduction inhibitory activity: SMAD1 phosphorylation by BMP4 stimulus, AlphaLISA SureFire, A549 cells; format: cell-based
T1 sequence (P12644 293-408): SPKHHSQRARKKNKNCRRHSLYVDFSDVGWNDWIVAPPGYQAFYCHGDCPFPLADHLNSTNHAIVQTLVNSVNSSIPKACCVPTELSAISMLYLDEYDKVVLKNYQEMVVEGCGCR

BMP7 = molecular target: T2, BMP7 (Homo sapiens, UniProt P18075); test: BMP7 signal transduction inhibitory activity: SMAD1 phosphorylation by BMP7 stimulus, A549 cells; format: cell-based
T2 sequence (P18075 293-431): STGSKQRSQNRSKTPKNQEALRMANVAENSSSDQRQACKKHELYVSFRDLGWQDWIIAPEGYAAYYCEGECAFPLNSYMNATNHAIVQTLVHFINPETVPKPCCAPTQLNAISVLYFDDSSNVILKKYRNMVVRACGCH
Outline: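 Inhibition was measured as loss of BMP7-induced SMAD1 phosphorylation, using 10 nM BMP7 on A549 cells. Most peptides were given as three-concentration sets, such as 1/10/100, 10/100/1,000, 100/300/1,000 or 10/30/90 nM. Others were given as eight 1/3-ratio dilutions from 100 or 1,000 nM, alongside Noggin as control.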

[1] = BMP4 0.2 nM stimulus, peptide conc. in assay 0.02, 0.2, 2 nM, class symbols
[2] = BMP7 10 nM stimulus, peptide conc. in assay 10, 100, 1000 nM, class symbols
[3] = BMP4 0.2 nM, peptide 0.02, 0.2, 2 nM, Table 6
[4] = BMP7 10 nM, peptide 10, 100, 1000 nM, Table 6

| Substance | aLIZA BMP4 (0.2 nM) % inh (BMP4; [1]) | aLIZA BMP7 (10 nM) % inh (BMP7; [2]) | aLIZA BMP4 (0.2 nM) % inh (BMP4; [3]) | aLIZA BMP7 (10 nM) % inh (BMP7; [4]) |
| --- | --- | --- | --- | --- |
| 299 (ERV[Phe(4-COOH)]V[KCOpipzaa]R[3Pal(6-Ph)][KCOpipzaa]Y[Hyp][Phe(4-(4-F-Ph))]Y[Phe(4-COOH)][Phe(4-COOH)]SCG-NH2; not fully specified (N-terminus, bridges); also: cyclic peptide, ring closure not given here) [compound 299] | C (showed less than 30% of inhibitory activity in 0.2 nM-addition zone and showed 30% or more of inhibitory activity in 2 nM-addition zone) | ND (the inhibitory activity was less than 30% at the maximum concentration evaluated) | – | – |
| 301 (ERV[Phe(4-COOH)]V[KCOpipzaa]R[3Pal(6-Ph)][KCOpipzaa]Y[Hyp][pBph3F]Y[Phe(4-COOH)][Phe(4-COOH)]SCG-NH2; not fully specified (N-terminus, bridges); also: cyclic peptide, ring closure not given here) [compound 301] | C (showed less than 30% of inhibitory activity in 0.2 nM-addition zone and showed 30% or more of inhibitory activity in 2 nM-addition zone) | E (showed less than 30% of inhibitory activity in 100 nM-addition zone and showed 30% or more of inhibitory activity in 1,000 nM-addition zone) | – | – |
| 302 (ERV[Phe(4-COOH)]V[KCOpipzaa]R[3Pal(6-Ph)][KCOpipzaa]Y[Hyp][pBph2F]Y[Phe(4-COOH)][Phe(4-COOH)]SCG-NH2; not fully specified (N-terminus, bridges); also: cyclic peptide, ring closure not given here) [compound 302] | C (showed less than 30% of inhibitory activity in 0.2 nM-addition zone and showed 30% or more of inhibitory activity in 2 nM-addition zone) | E (showed less than 30% of inhibitory activity in 100 nM-addition zone and showed 30% or more of inhibitory activity in 1,000 nM-addition zone) | – | – |
| 303 (ERV[Phe(4-COOH)]V[KCOpipzaa]R[Bph3C][KCOpipzaa]Y[Hyp][Bip]Y[Phe(4-COOH)][Phe(4-COOH)]SCG-NH2; not fully specified (N-terminus, bridges); also: cyclic peptide, ring closure not given here) [compound 303] | C (showed less than 30% of inhibitory activity in 0.2 nM-addition zone and showed 30% or more of inhibitory activity in 2 nM-addition zone) | E (showed less than 30% of inhibitory activity in 100 nM-addition zone and showed 30% or more of inhibitory activity in 1,000 nM-addition zone) | – | – |
| 306 (ERV[Phe(4-COOH)][Cba][KCOpipzaa]R[3Pal(6-Ph)][KCOpipzaa]Y[Hyp][Bip]Y[Phe(4-COOH)][Phe(4-COOH)]SCG-NH2; not fully specified) [compound 306] | – | – | C (showed less than 30% of inhibitory activity in 0.2 nM-addition zone and showed 30% or more of inhibitory activity in 2 nM-addition zone) | E (showed less than 30% of inhibitory activity in 100 nM-addition zone and showed 30% or more of inhibitory activity in 1,000 nM-addition zone) |
| 307 (ERV[Phe(4-COOH)][Chg][KCOpipzaa]R[3Pal(6-Ph)][KCOpipzaa]Y[Hyp][Bip]Y[Phe(4-COOH)][Phe(4-COOH)]SCG-NH2; not fully specified) [compound 307] | – | – | C (showed less than 30% of inhibitory activity in 0.2 nM-addition zone and showed 30% or more of inhibitory activity in 2 nM-addition zone) | E (showed less than 30% of inhibitory activity in 100 nM-addition zone and showed 30% or more of inhibitory activity in 1,000 nM-addition zone) |
| 310 (ERV[Phe(4-COOH)][Ala(4-THP)][KCOpipzaa]R[3Pal(6-Ph)][KCOpipzaa]Y[Hyp][Bip]Y[Phe(4-COOH)][Phe(4-COOH)]SCG-NH2; not fully specified (N-terminus, bridges); also: cyclic peptide, ring closure not given here) [compound 310] | – | – | C (showed less than 30% of inhibitory activity in 0.2 nM-addition zone and showed 30% or more of inhibitory activity in 2 nM-addition zone) | E (showed less than 30% of inhibitory activity in 100 nM-addition zone and showed 30% or more of inhibitory activity in 1,000 nM-addition zone) |
| 311 ({CH2CO}-ERV[Phe(4-COOH)]V[KCOpipzaa]R[3Pal(6-Ph)][KCOpipzaa]Y[Hyp][Bph3F]Y[Phe(4-COOH)][Phe(4-COOH)]SCG-NH2; thioether N-17 (inferred)) [compound 311] | – | – | B (showed less than 30% of inhibitory activity in 0.02 nM-addition zone and showed 30% or more of inhibitory activity in 0.2 nM-addition zone) | E (showed less than 30% of inhibitory activity in 100 nM-addition zone and showed 30% or more of inhibitory activity in 1,000 nM-addition zone) |
| 313 (ERV[Phe(4-COOH)][Cba][KCOpipzaa]R[3Pal(6-Ph)][KCOpipzaa]Y[Hyp][Bph3F]Y[Phe(4-COOH)][Phe(4-COOH)]SCG-NH2; not fully specified) [compound 313] | – | – | A (showed 30% or more of inhibitory activity in a zone to which the peptide was added in an amount of 0.02 nM) | E (showed less than 30% of inhibitory activity in 100 nM-addition zone and showed 30% or more of inhibitory activity in 1,000 nM-addition zone) |
| 314 (ERV[Phe(4-COOH)][Cba][KCOpipzaa]R[3Pal(6-Ph)][KCOpipzaa]Y[Hyp][Bph3C]Y[Phe(4-COOH)][Phe(4-COOH)]SCG-NH2; not fully specified) [compound 314] | – | – | B (showed less than 30% of inhibitory activity in 0.02 nM-addition zone and showed 30% or more of inhibitory activity in 0.2 nM-addition zone) | E (showed less than 30% of inhibitory activity in 100 nM-addition zone and showed 30% or more of inhibitory activity in 1,000 nM-addition zone) |
| 315 (ERV[Phe(4-COOH)][Cba][KCOpipzaa]R[3Pal(6-Ph)][KCOpipzaa]Y[Hyp][Bip][4Pal][Phe(4-COOH)][Phe(4-COOH)]SCG-NH2) [compound 315] | – | – | B (showed less than 30% of inhibitory activity in 0.02 nM-addition zone and showed 30% or more of inhibitory activity in 0.2 nM-addition zone) | E (showed less than 30% of inhibitory activity in 100 nM-addition zone and showed 30% or more of inhibitory activity in 1,000 nM-addition zone) |
| 316 (ERV[Phe(4-COOH)][Cba][KCOpipzaa]R[3Pal(6-Ph)][KCOpipzaa]Y[Hyp][Bph3F][4Pal][Phe(4-COOH)][Phe(4-COOH)]SCG-NH2; not fully specified) [compound 316] | – | – | C (showed less than 30% of inhibitory activity in 0.2 nM-addition zone and showed 30% or more of inhibitory activity in 2 nM-addition zone) | ND (the inhibitory activity was less than 30% at the maximum concentration evaluated) |
| 317 (ERV[Phe(4-COOH)][Cba][KCOpipzaa]R[3Pal(6-Ph)][KCOpipzaa]Y[Hyp][Bph3C][4Pal][Phe(4-COOH)][Phe(4-COOH)]SCG-NH2; not fully specified) [compound 317] | – | – | B (showed less than 30% of inhibitory activity in 0.02 nM-addition zone and showed 30% or more of inhibitory activity in 0.2 nM-addition zone) | ND (the inhibitory activity was less than 30% at the maximum concentration evaluated) |
